Entries after “also recorded” stand apart in the source; their conditions may differ.
Molecular target: T1, mouse uPARAP (Mus musculus, UniProt Q64449)
T1 sequence (Q64449 31-1479): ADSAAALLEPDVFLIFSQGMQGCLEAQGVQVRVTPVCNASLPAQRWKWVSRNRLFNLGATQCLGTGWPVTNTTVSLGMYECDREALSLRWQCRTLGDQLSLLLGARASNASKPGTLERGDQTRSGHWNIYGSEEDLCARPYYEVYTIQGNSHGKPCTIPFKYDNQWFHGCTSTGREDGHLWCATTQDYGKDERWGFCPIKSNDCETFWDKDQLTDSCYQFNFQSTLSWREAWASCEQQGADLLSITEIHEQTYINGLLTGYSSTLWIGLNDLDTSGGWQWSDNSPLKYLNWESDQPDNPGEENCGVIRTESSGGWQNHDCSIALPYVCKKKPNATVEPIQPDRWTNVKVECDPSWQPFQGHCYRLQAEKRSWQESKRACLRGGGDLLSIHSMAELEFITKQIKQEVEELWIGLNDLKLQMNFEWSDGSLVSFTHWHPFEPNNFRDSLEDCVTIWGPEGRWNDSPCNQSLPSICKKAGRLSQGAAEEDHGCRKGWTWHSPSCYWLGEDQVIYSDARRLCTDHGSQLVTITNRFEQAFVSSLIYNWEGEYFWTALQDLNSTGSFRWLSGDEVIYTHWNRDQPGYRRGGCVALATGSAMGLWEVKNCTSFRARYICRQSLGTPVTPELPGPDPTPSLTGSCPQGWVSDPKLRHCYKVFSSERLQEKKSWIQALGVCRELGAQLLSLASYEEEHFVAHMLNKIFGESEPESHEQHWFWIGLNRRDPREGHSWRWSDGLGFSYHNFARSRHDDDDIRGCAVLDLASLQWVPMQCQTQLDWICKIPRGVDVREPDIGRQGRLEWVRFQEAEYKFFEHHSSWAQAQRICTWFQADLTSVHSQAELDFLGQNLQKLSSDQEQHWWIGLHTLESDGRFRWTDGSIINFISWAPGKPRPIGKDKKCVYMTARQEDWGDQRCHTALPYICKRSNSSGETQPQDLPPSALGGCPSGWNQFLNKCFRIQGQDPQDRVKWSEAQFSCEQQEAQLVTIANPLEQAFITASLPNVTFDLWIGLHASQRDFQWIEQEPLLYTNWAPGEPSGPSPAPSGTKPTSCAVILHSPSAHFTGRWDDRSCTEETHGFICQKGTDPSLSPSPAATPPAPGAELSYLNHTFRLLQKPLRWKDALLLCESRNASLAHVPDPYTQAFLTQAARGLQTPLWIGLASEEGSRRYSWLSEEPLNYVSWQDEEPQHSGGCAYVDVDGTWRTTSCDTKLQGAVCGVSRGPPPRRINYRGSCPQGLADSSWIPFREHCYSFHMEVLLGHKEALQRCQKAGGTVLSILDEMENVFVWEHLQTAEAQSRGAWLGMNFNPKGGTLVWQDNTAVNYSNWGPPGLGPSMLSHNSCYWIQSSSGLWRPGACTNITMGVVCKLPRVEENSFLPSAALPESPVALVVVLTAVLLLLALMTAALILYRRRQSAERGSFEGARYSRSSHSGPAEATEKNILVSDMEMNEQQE
Assay: Antibody reactivity with uPARAP
Type: binding
Settings: listed as 2h9

B1: mAb 2h9: mouse monoclonal IgG1k anti-uPARAP antibody clone 2.h.9: F12, produced by hybridoma cell culture (protein)
light: DIQMTQSPASQSASLGESVTITCLASQTIGTWLAWYQQKPGKSPQLLIYAATTLTDGVPSRFSGAGSGTKFSLKISSLQAEDFASYFCQEFFSTPFTFGSGTKLELKRADAAPTVSIFPPSSEQLTSGGASVVCFLNNFYPKDINVKWKIDGGERQNGVLNSWTDQDSKDSTYSMSSTLTLTKDEYERHNSYTCEATHKTSTSPIVKSFNRNEC
heavy: QVQLQQPGTELVRPGLSVKLSCKASGYTFTSYWMNWVKQRPGQGLEWIGMIHPSNDEKRINQKFKDKATLTVDKFSSTVYMQVSSPTSEDSAVYYCARGGGDYVGDYALDFWGQGTSVTVSSAKTTPPSVYPLAPGSAAQTNSMVTLGCLVKGYFPEPVTVTWNSGSLSSGVHTFPAVLQSDLYTLSSSVTVPSSTWPSETVTCNVAHPASSTKVDKKIVPRDCGCKPCICTVPEVSSVFIFPPKPKDVLTITLTPKVTCVVVDISKDDPEVQFSWFVDDVEVHTAQTQPREEQFNSTFRSVSELPIMHQDWLNGKEFKCRVNSAAFPAPIEKTISKTKGRPKAPQVYTIPPPKEQMAKDKVSLTCMITDFFPEDITVEWQWNGQPAENYKNTQPIMDTDGSYFIYSKLNVQKSNWEAGNTFTCSVLHEGLHNHHTEKSLSHSPGK
In the case of B1, the “Reactivity with mouse uPARAP” value is reported as “reactive against both human and murine uPARAP; also recorded: reacts with both human and mouse uPARAP”.
